Measurements published in US20080274112A1, “Nogo Receptor Antagonists” (priority 2003, published 2008).

B1: sNogoR310: soluble Nogo receptor-1 polypeptide, residues 26-310 (human) or 27-310 (rat); mouse form expressed in transgenic mice (protein)
chain: CPGACVCYNEPKVTTSRPQQGLQAVPAGIPASSQRIFLHGNRISYVPAASFQSCRNLTILWLHSNALAGIDAAAFTGLTLLEQLDLSDNAQLRVVDPTTFRGLGHLHTLHLDRCGLQELGPGLFRGLAALQYLYLQDNNLQALPDNTFRDLGNLTHLFLHGNRIPSVPEHAFRGLHSLDRLLLHQNHVARVHPHAFRDLGRLMTLYLFANNLSMLPAEVLVPLRSLQYLRLNDNPWVCDCRARPLWAWLQKFRGSSSGVPSNLPQRLAGRDLKRLATSDLEGCA
B2: sNogoR310-Fc: fusion protein comprising amino acids 26-310 of rat Nogo receptor-1 and a rat Fc fragment (protein)
chain: PCPGACVCYNEPKVTTSRPQQGLQAVPAGIPASSQRIFLHGNRISYVPAASFQSCRNLTILWLHSNALAGIDAAAFTGLTLLEQLDLSDNAQLRVVDPTTFRGLGHLHTLHLDRCGLQELGPGLFRGLAALQYLYLQDNNLQALPDNTFRDLGNLTHLFLHGNRIPSVPEHAFRGLHSLDRLLLHQNHVARVHPHAFRDLGRLMTLYLFANNLSMLPAEVLVPLRSLQYLRLNDNPWVCDCRARPLWAWLQKFRGSSSGVPSNLPQRLAGRDLKRLATSDLEGCA
modifications: left off: a dimerising Fc or GST
notes: fusion protein comprising amino acids 26-310 of rat Nogo receptor-1 and a rat Fc fragment

How the values were obtained:
[1] = system: mouse spinal cord dorsal over-hemisection; assay: Dorsal over-hemisection in gfap::sNogoR310 transgenic mice; assay type: in vivo
Excerpt: (§1) The Basso-Beattie-Bresnahan (BBB) locomotor rating scale (Basso et al., 1996, Neurotrauma 13, 343-359), the inclined plane test and the inclined grid walking test (Li and Strittmatter, 2003, J Neurosci. 2003, 23, 4219-27) were monitored in rats and mice after injury. For the inclined plane test, we measured the maximal angle to which a 50 cm×60 cm board could be angled for 5 sec without the mouse sliding off. For inclined grid walking, the mice were trained to climb a wire grid (35 cm long with 2.54 cm squares) at a slope of 45 degrees. The number of instances in which the hindpaw dropped below the grid plane was scored for each excursion from bottom to top. For the rat behavioral testing, BBB locomotor scale, grid walking and footprint analysis were performed. For grid walking, the rats were trained to walk on a wire grid (70 cm long with 2.54 cm squares), and the number of instances in which the hindpaw dropped below the grid plane was counted. For footprint analysis, the walking patterns of rat hindpaws were recorded with ink during a continuous locomotion across a 90 cm runway, and stride length on each side and stride width were calculated (Metz et al., 2000, Brain Res., 883, 165-177). All of these behavioral tests were performed by at least two individuals. Throughout the surgery, behavioral testing and histologic analysis, researchers were blind to the identity of the compound in the minipump.
We cloned the mouse sNogoR310 cDNA (corresponding to amino acids 1-310 of the Nogo receptor-1) into the NotI site of the C-3123 vector. In this vector, sNogoR310 expression is under the control of the glial fibrillary acidic protein (gfap) gene regulatory elements, which allow high level expression with enhanced secretion from reactive astrocytes at site of injury. We digested the resulting vector sequentially with AatII and SfiI and isolated the gfap::sNogoR310 construct on a 3.4 kb fragment. We microinjected this fragment into embryos to generate transgenic mice. We verified by PCR that the transgene had integrated and identified five founder lines. We crossed heterozygous males of the two founder lines with the highest expression levels to female C57BL/6J mice. We confirmed that the GFAP-positive cells express and secrete sNogoR310 in heterozygous transgenic mice by Western blot analysis using antibody raised against Nogo receptor-1.
We deeply anesthetized adult female heterozygous transgenic or littermate WT mice (10-16 weeks of age) and performed a complete laminectomy, fully exposing the dorsal part of spinal cord at T6 and T7 levels. We performed a dorsal over-hemisection at T6 with a 30-gauge needle and a pair of microscissors to completely sever the dorsal and dorsolateral corticospinal tracts (CSTs). We passed a marked needle across the dorsal part of the spinal cord several times to assure that the lesion was at a depth of 1.0 mm. We sutured the muscle layers over the laminectomies and closed the skin on the back with surgical staples. To trace the corticospinal tracts, we made a burr hole overlying cerebral cortex on the right side into the skull 14 days after spinal cord injury. We applied the tracer BDA (MW 10,000, 10% in PBS) (Molecular Probes, Eugene, Oreg.) to 4 injection sites at a depth of 0.7 mm from the cortical surface. Four weeks after injury, the mice were perfused transcardially with PBS, followed by 4% paraformaldehyde.
We investigated the integrity of descending corticospinal tracts (CST) by injecting anterograde tracer biotin dextran amine (BDA) into the right motor cortex as described in Li and Strittmatter, 2003, J. Neurosci., 23, 4219-27. In littermate WT mice, the prominent dorsal CST (dCST) is tightly bundled rostral to the lesion, and a few dorsolateral CST fibers are visible ipsilaterally. A small number of BDA-labeled short collateral sprouts project into gray matter, particularly in the ventral cord, but the sprouting is largely confined to the side of the cord contralateral to the tracer injection. […]

chick neurons = assay: Neurite outgrowth assay using chick neurons; assay type: cell-based
Nogo receptor-1 = assay: Blocking of ligand binding to Nogo receptor-1 by soluble receptors
DRG neurons = assay: Neurite outgrowth assay, myelin mixed with test protein (Example 10); assay type: cell-based; conditions: P3-4 rat DRG; spotted mixed with CNS myelin
Procedure: Lab-Tek® culture slides (4 wells) were coated with 0.1 mg/ml poly-D-lysine (Sigma®). CNS myelin alone or mixed with sNogoR310, sNogoR310-Fc fusion protein, mAb 5B10 or control PBS were separately spotted as 3 μl drops. Fluorescent microspheres (Polysciences) were added to the myelin/PBS to allow later identification of the drops (Grandpre et al, Nature 403, 2000). Lab-Tek® slides were then rinsed and coated with 10 μg/ml laminin (Gibco™).
Dorsal root ganglions (DRG's) from P3-4 Sprague Dawley rat pups were dissociated with 1 mg/ml collagenase type 1 (Worthington), triturated with fire-polished Pasteur pipettes pre-plated to enrich in neuronal cells and finally plated at 23,000 cells/well on the pre-coated Labtek culture slides. The culture medium was F12 containing 5% heat inactivated donor horse serum, 5% heat inactivated fetal bovine serum and 50 ng/ml MNGF and incubated at 37° C. and 5% CO2 for 6 hours.
Slides were fixed for 20 minutes with 4% paraformaldehyde containing 20% sucrose and stained for the neuronal marker anti beta-III-tubulin (Covance TUJ1) diluted 1:500. As secondary antibody anti-mouse Alexa Fluor® 594 (Molecular Probes) was diluted 1:300 and slides were coverslipped with Gel/Mount™ (Biømeda™). 5× digital images were acquired with OpenLab™ software and analyzed by using the MetaMorph® software for quantification of neurite outgrowth.

Nogo-66, MAG and myelin = assay: Blocking of Nogo-66, MAG and myelin action in vitro
[2] = system: rat spinal cord dorsal hemisection; assay: Intrathecal sNogoR310-Fc in rats with mid-thoracic dorsal hemisection; assay type: in vivo
Excerpt: as §1
We isolated spinal cord 4 mm rostral to and 4 mm caudal to the lesion site (8 mm long in total) from transgenic mice and embedded it in a glutaraldehyde-polymerized albumin matrix, and cut parasagittally on a vibratome (30 μm thick). We collected transverse sections (50 μm) from the spinal cord 5-7 mm rostral to and 5-7 mm caudal, to the injury site. For sNogoR310-Fc injection experiments in rats, the spinal cord extending from 10 mm rostral to 10 mm caudal from the lesion site was cut parasaggitally (50 μm) on a vibrating microtome. Transverse sections were collected from the spinal cord 11-16 mm rostral to and 11-16 mm caudal to the injury site. We incubated the sections with avidin-biotin-peroxidase complex and visualized the BDA tracer by nickel-enhanced diaminobenzidine HRP reaction (Grandpre, 2002, Nature, 417, 547-551). We processed some sections for serotonin immunohistochemistry (anti-5-HT antibody) by indirect immunofluoresence. To visualize the lesion area, we double-stained some sections with antibodies directed against GFAP (Sigma®, St. Louis, Mo.). We mounted, dehydrated and covered the sections with mounting medium.
We fused the ligand binding domain (27-310) of rat Nogo receptor-1 to the rat IgG1 Fc domain to promote stability and purification. We purified protein from stably transfected CHO cells. […]

| Molecule | grid climbing ([1]; 2-6 weeks post-injury) | BDA-labeled regenerating fibers in the rostral-caudal axis ([1]; any level 1-4 mm caudal to the lesion, each transgenic mouse) | sustainable inclined plane angle ([1]; days 7-28 after injury vs control) | BBB scores ([1]; lines Tg08 and Tg01 vs control, 7-28 days) | fibers on the opposite side of the spinal cord (ipsilateral to tracer injection) ([1]; rostral to dorsal hemisection) | sprouting density of collateral sprouts (micro densitometric measurement) ([1]; rostral to lesion, transgenic vs WT) | CST sprouting ([1]; secreted in transgenic mice) | serotonin fibers in ventral horn of caudal spinal cord ([1]; transgenic vs WT) | protection in similar assay using chick neurons (chick neurons) | blocking of binding of NogoA, NogoB, NogoC, MAG and OM-gp to Nogo receptor-1 (Nogo receptor-1) | protection from myelin-mediated inhibition of neurite outgrowth (DRG neurons) | blocking of Nogo-66, MAG and myelin action (Nogo-66, MAG and myelin) | animals with consistent forelimb-hindlimb coordination and parallel paw position ([2]; 4 weeks after injury) | total collateral length of each sprout versus NEP 1-40-treated animals ([2]; distal spinal cord) | serotonin fibers versus control group ([2]; sections 11-15 mm below the lesion) | rubrospinal tract fibers distal to SCI ([2]; transverse sections 11-15 mm distal) |
| --- | --- | --- | --- | --- | --- | --- | --- | --- | --- | --- | --- | --- | --- | --- | --- | --- |
| B1 | progressive improvement | 5-15 | significantly greater | significantly higher | 4-12 sprouts per transverse section | approximately a tenfold increase | induces CST sprouting | much greater number | protective | block the binding | protected | – | – | – | – | – |
| B2 | – | – | – | – | – | – | – | – | – | – | protected | blocks | all 9 | twice as great | twice as numerous | many BDA-labeled RST fibers |
